From PMC3288515
Where two headings read alike, the source gives them in different places.

B1: κE3' PU.1-STAT5 probe (dsDNA)
DNA 1: CTTTGAGGAACTGAAAACAGAACCT
DNA 2: AGGTTCTGTTTTCAGTTCCTCAAAG
B2: SV40 PU.1 probe (dsDNA)
DNA 1: TGAAATAACCTCTGAAAGAGGAACTTGGTTAGGTA
DNA 2: TACCTAACCAAGTTCCTCTTTCAGAGGTTATTTCA

What was measured:
Assay in all cases: EMSA
[1] = target: T1, STAT5 (STAT5a cDNA used for the retroviral construct) (UniProt P42230 1-793)
PU.1 [2] = target: T2, PU.1 (UniProt P17433 1-272)
PU.1 [3] = target: T2, PU.1; remark: listed apart in the source
[4] = target: T1, STAT5 (STAT5a cDNA used for the …); remark: listed apart in the source

T1 sequence (P42230 whole entry): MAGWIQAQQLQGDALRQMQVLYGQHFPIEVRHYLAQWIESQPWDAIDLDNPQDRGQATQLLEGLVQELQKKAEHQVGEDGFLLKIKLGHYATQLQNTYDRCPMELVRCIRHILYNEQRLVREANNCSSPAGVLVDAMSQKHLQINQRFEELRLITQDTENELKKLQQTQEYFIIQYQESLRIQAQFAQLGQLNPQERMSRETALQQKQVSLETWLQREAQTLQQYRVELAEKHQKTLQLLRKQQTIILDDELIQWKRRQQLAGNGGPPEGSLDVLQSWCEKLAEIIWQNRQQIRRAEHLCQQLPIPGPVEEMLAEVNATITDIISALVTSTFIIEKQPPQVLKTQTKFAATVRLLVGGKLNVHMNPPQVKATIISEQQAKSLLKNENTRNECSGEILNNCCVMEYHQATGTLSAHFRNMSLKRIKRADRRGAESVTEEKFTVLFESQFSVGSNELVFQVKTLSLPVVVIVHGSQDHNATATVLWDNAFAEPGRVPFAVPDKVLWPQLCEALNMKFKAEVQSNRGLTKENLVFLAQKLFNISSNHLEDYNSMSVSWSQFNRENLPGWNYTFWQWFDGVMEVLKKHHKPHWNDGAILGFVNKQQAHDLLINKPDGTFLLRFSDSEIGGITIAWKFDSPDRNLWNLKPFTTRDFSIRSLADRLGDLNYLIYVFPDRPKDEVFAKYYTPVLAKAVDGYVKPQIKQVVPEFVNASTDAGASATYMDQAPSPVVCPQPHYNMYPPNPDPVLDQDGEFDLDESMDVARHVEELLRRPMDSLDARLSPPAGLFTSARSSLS

Row | Binder | binding result [1] | binding result (PU.1 [2]) | binding result (PU.1 [3]) | binding result [4]
1 | B1 | binds | binds |  | 
2 | B2 |  |  | binds | no binding
